The labels stand for the following.
B1: Protein naked cuticle (Drosophila melanogaster (Fruit fly)), Q9VVV9 (parent)
chain: MAGNIVKWWKHKILGGYKQFSVQECTTDSEELMYHQVRASSSCSAPPDLLLVSERDNNIQLRSPVVNIITTPPGNASGAGSKQQSHHQTNHHSSGRSHPGHTAHPQDVSSGGSHSKHLRISSTSNGKHGKYSNMQQQLPQDEDVVDAAATMQQQQHTGHAHSRHLHHHKEERIRLEEFTCDVSVEGGKSSQPLQFSFTFYDLDGHHGKITKDDIVGIVYTIYESIGKSVVVPHCGSKTINVRLTVSPEGKSKSQPVVPVPVAAGFSSSHASKLKKLPTGLAAMSKPLAGGGVGSGGASALTTSAGNRRQHRYRPRKLIKSDDEDDDSNSEKEKDAAHAPAADQPSGSGTKATGKSHHHQSQSARYHQKNNSRAEQCCTEQNTPDNGHNTYENMLNLKCCKPEVDQVDCPSHRQHHQSHPNHQMRQQDIYMKQATQRVKMLRRARKQKYQDHCLETRQRSLSVGNDSACPNRHLQLQQPPVGHPQPQSLNHKSASGSPPLGVGGGGDMMLDGVQLRQPRPHSLTPHQHQQQNQQQQQQQRKSAECWKSALNRNDLISIIRESMEKNRLCFQLNGKPQANVSPIRQPAAQQQPQQQQRQRCNTGSKIPTLITNHSPVAQQSPLSCSPPTAEPTTPSIPAAPPAIEVNGQQHHPTHPTHPSHHNHHEHPQPHIPIYHQQLAINPAVLAAQQTHNTAHNKLNLCGYDSFLHATICGGGAAAHSPPATPSNVATVQPIPKKSQKNLLQGYQRLEQSQQQQQQQRSSKDYKNYGNLIYAKLSEQLQQKDREQRRQRHKQQQHQMLQDQPKDASRSEQRPPTSNSSSAGSKIYGDAVECAHLLASEEEDLPPSPQLTSTPSKVVSTDTLIDLNDDVGEAVAEAVTEGGKQSLEAEESGQQVEVELDTSASSSMIHRYVHEHIHHHYHHFKEQQDV

This experiment covers variants of B1. To be noted: with dsh_drome dsh.
In the case of D201A, the “effect of a mutation on the interaction” value is “decreasing interaction”. Consider D213V, for which the “effect of a mutation on the interaction” value was “decreasing interaction”.

For the origin of these results see IntAct's records for PubMed 12354775.
